The record followed here is patent US20220073586A1 (EUTILEX, published 2022).

The target in assay [1] is PD-L1 molecules (Sino, Cat #10084-H08H) (UniProt Q9NZQ7 19-238). The experiment in a line: SPR, Biacore T200; PD-1 Fc fusion fixed on CM5 chip, PD-L1 injected at 3.125-100 nM.
Assay [2] deals with T1, PD-L2 antigen (coated on 96-well immunoplate) (UniProt Q9BQ51 20-220, limits assumed).
T1 construct: also called antigen PD-L2
T1 sequence (looked up): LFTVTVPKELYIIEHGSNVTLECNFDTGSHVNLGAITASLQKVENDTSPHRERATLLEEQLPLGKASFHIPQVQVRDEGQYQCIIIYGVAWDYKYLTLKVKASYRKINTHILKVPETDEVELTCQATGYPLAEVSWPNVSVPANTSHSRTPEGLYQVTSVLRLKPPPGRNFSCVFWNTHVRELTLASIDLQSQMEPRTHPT
The experiment in a line: single antigen ELISA, PD-L2 coated at 1 ug/mL, detection with anti-hFc-HRP. As for the experimental part:
(§1) Briefly, after coating PD-L1 antigen or PD-L2 antigen at a concentration of 1 μg/ml in a 96-well immunoplate at 4° C. overnight, 150 μl of 1× assay buffer (Biolegend) was treated for 1 hour to block non-specific binding. […] The treatment concentration on the antigen PD-L1-coated plate was serially diluted from 30 μg/mL to 3 times to make a total of 15 points, The treatment concentration on the antigen PD-L2 coated plate was serially diluted 3 times from 100 μg/mL to a total of 12 points. Anti-hFc-HRP (Biolegend) was treated with 100 μl at a concentration of 0.4 μg/mL. After incubation for 1 hour, color was developed with TMB, and after 3 minutes, the reaction was stopped using sulfuric acid. Washing was performed 3 times using washing buffer in all processes except for the process after TMB treatment, All processes except for the antigen coating process were carried out at room temperature.
A general note: An ELISA detects its analyte on a solid surface through an enzyme-linked reagent.

For assay [3], the target named is T2, PD-L1 antigen (coated on 96-well immunoplate) (UniProt Q9NZQ7 19-238, limits assumed).
T2 construct: also called antigen PD-L1
Kind of assay: single antigen ELISA, PD-L1 coated at 1 ug/mL, detection with anti-hFc-HRP. As for the experimental part:
as §1

One may read the Kd as the constant that tells how readily two partners part at equilibrium. Lower therefore signals tighter binding. As a reminder, the koff is the rate constant with which the complex falls apart. Read a high koff as a short-lived complex. As usually defined, the kon is the second-order rate constant of association. A low value points to slow association. By EC50 (read off the curve) is commonly meant the concentration giving half of the maximal effect. Read a low EC50 (read off the curve) as a more potent agent.

Chain of PD-L1 molecules (Sino, Cat #10084-H08H) (Q9NZQ7 19-238 limits assumed): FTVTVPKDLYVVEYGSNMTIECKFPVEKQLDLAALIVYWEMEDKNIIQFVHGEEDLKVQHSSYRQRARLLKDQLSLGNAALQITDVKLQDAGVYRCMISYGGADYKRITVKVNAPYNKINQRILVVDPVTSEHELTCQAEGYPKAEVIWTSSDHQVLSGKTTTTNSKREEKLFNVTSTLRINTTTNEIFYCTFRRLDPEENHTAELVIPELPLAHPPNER
T2 sequence (Q9NZQ7 19-238 limits assumed): as above

B1: PD-1.m8 Fc fusion protein (Fc fusion)
chain: FLESPDRPWNAPTFSPALLLVAEGDNATFTCSFSNASESFHVVWHRESPSGQTDTLAAFPEDRSQPGQDHRFRVTRLPNGRDFHMSVVRAQRNDSGTYVCGVISLAPKIQIKESLGAELRVTERRAEVPTAHPSPSPRPAGQFQTLVVGGGGGSSNTKVDKRVEPKSCDKTHTCPPCPAPPVAGPSVFLFPPKPKDTLMISRTPEVTCVVVDVSHEDPEVQFNWYVDGVEVHNAKTKPREEQFNSTFRVVSVLTVVHQDWLNGKEYKCKVSNKGLPAPIEKTISKTKGQPREPQVYTLPPSREEMTKNQVSLTCLVKGFYPSDIAVEWESNGQPENNYKTTPPMLDSDGSFFLYSKLTVDKSRWQQGNVFSCSVMHEALHNHYTQKSLSLSPGK
In assay [1], B1 showed a dissociation constant (Kd) of 1.04 nM, a dissociation rate constant (koff) of 0.00182 s⁻¹ and a kon of 1.76e+06 M⁻¹ s⁻¹.

B2: euPD-1 Fc fusion protein (Fc fusion)
chain: FLESPDRPWNAPTFSPALLLVAEGDNATFTCSFSNASESFHVVWHRESPSGQTDTLAAFPEDRSQPGQDHRFRVTRLPNGRDFHMSVVRAQRNDSGTYVCGVISLAPKIQIKESLRAELRVTERRAEVPTAHPSPSPRPAGQFQTLVVGGGGGSSNTKVDKRVEPKSCDKTHTCPPCPAPPVAGPSVFLFPPKPKDTLMISRTPEVTCVVVDVSHEDPEVQFNWYVDGVEVHNAKTKPREEQFNSTFRVVSVLTVVHQDWLNGKEYKCKVSNKGLPAPIEKTISKTKGQPREPQVYTLPPSREEMTKNQVSLTCLVKGFYPSDIAVEWESNGQPENNYKTTPPMLDSDGSFFLYSKLTVDKSRWQQGNVFSCSVMHEALHNHYTQKSLSLSPGK
In assay [1], B2 gave an equilibrium dissociation constant (Kd) of 0.714 nM, a koff of 0.0013 s⁻¹ and a kon of 1.82e+06 M⁻¹ s⁻¹. Also, in assay [2], the binding result is recorded as “no binding (tested: 100 ug/mL)”. Also, in assay [3], the “EC50 (read off the curve)” value was around 0.03 µg/mL.

B3: PD-1.m7 Fc fusion protein (Fc fusion)
chain: FLESPDRPWNAPTFSPALLLVAEGDNATFTCSFSNASESFHVVWHRESPSGQTDTLAAFPEDRSQPGQDCRFRVTRLPNGRDFHMSVVRARRNDSGTYVCGVISLAPKIQIKESLGAELRVTERRAEVPTAHPSPSPRPAGQFQTLVVGGGGGSSNTKVDKRVEPKSCDKTHTCPPCPAPPVAGPSVFLFPPKPKDTLMISRTPEVTCVVVDVSHEDPEVQFNWYVDGVEVHNAKTKPREEQFNSTFRVVSVLTVVHQDWLNGKEYKCKVSNKGLPAPIEKTISKTKGQPREPQVYTLPPSREEMTKNQVSLTCLVKGFYPSDIAVEWESNGQPENNYKTTPPMLDSDGSFFLYSKLTVDKSRWQQGNVFSCSVMHEALHNHYTQKSLSLSPGK
In assay [1], B3 registered a Kd of 1.1 nM, a koff of 0.00216 s⁻¹ and a kon of 1.96e+06 M⁻¹ s⁻¹.
